The target of this test is murine MRC OX-2 (mouse) (UniProt O54901). The test is described as follows: FACS of 10-day cultured mouse bone marrow derived dendritic cells, anti-CD200 and PE anti-mouse IgG.
UniProt O54901, sequence (O54901 31-278 limits assumed): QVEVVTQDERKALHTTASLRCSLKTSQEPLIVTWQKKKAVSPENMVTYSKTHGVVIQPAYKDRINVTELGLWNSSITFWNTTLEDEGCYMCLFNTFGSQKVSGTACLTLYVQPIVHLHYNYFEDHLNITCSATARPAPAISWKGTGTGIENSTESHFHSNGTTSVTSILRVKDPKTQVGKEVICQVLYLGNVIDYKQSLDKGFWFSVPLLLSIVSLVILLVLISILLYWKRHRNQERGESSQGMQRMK

“mouse IgG1 anti-rat CD200 (commercial anti-rat MRC OX-2 monoclonal antibody, Cedarlane Labs)” registered a percent stained cells of 14%.

The values above are taken from patent US20110206668A1.
